Tests used:
[1] = biological target: PI4KB phosphorylated at Ser496 (E. coli produced, PKA treated) (human) (UniProt Q9UBF8); assay: HDX-MS
[2] = biological target: PI4KB (isoform 2, E. coli produced, non-phosphorylated) (human) (UniProt Q9UBF8); assay: HDX-MS

Substance: c10orf76 (untagged, E. coli produced) (from UniProt Q5T2E6 1-689) (natural protein)
- Kd [1]: 85 nM
- Kd [2]: 30 nM
